B1: library; numbered along this chain (parent)
chain: MRKPRAAVGSGHRKQAASQEGRQKHAKNNSQAKPSACDGLARQPEEVVLQASVSSYHLFRDVAEVTAFRGSLLSWYDQEKRDLPWRRRAEDEMDLDRRAYAVWVSEVMLQQTQVATVINYYTGWMQKWPTLQDLASASLEEVNQLWAGLGYYSRGRRLQEGARKVVEELGGHMPRTAETLQQLLPGVGRYTAGAIASIAFGQATGVVDGNVARVLCRVRAIGADPSSTLVSQQLWGLAQQLVDPARPGDFNQAAMELGATVCTPQRPLCSQCPVESLCRARQRVEQEQLLASGSLSGSPDVEECAPNTGQCHLCLPPSEPWDQTLGVVNFPRKASRKPPREESSATCVLEQPGALGAQILLVQRPNSGLLAGLWEFPSVTWEPSEQLQRKALLQELQRWAGPLPATHLRHLGEVVHTFSHIKLTYQVYGLALEGQTPVTTVPPGARWLTQEEFHTAAVSTAMKKVFRVYQGQQPGTCMGSKRSQVSSPCSRKKPRMGQQVLDNFFRSHISTDAHSLNSAAQ

Variants of: B1
Test: 8OG:A repair function score (normalized; synonymous = 0, nonsense = -1) (normalized log-likelihood score); higher = more repair activity (WT-like)
Conditions: with 8OG:A DNA repair reporter (GFP) in HEK-293 MUTYH KO cells
Procedure, shortened: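 GFP+ (repair) and GFP− bins of viable mCherry+ cells were collected at 72 h from MUTYH knockout HEK-293 cells bearing lentiviral MUTYH cDNA NNN codon-scan libraries in 10 pg/ml doxycycline, co-transfected with an 8OG:A GFP repair reporter and mCherry. Tile amplicons were sequenced, and per-tile Rosace fitness scores were normalized to a repair function score anchored on synonymous and nonsense distributions. Synonymous medians were set to 0 and nonsense to -1, with variants under 300 counts per million at the start removed.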
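Note: cells sorted at 72 h after reporter transfection.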

Variant	8OG:A repair function score
MRKPRAAVGSGHRKQAASQEGRQKHAKNNSQAKPSACDGLARQPEEVVLQASVSSYHLFRDVAEVTAFRGSLLSWYDQEKRDLPWRRRAEDEMDLDRRAYAVWVSEVMLQQTQVATVINYYTGWMQKWPTLQDLASASLEEVNQLWAGLGYYSRGRRLQEGARKVVEELGGHMPRTAETLQQLLPGVGRYTAGAIASIAFGQATGVVDGNVARVLCRVRAIGADPSSTLVSQQLWGLAQQLVDPARPGDFNQAAMELGATVCTPQRPLCSQCPVESLCRARQRVEQEQLLASGSLSGSPDVEECAPNTGQCHLCLPPSEPWDQTLGVVNFPRKADRKPPREESSATCVLEQPGALGAQILLVQRPNSGLLAGLWEFPSVTWEPSEQLQRKALLQELQRWAGPLPATHLRHLGEVVHTFSHIKLTYQVYGLALEGQTPVTTVPPGARWLTQEEFHTAAVSTAMKKVFRVYQGQQPGTCMGSKRSQVSSPCSRKKPRMGQQVLDNFFRSHISTDAHSLNSAAQ [S335D]	-0.0695
MRKPRAAVGSGHRKQAASQEGRQKHAKNNSQAKPSACDGLARQPEEVVLQASVSSYHLFRDVAEVTAFRGSLLSWYDQEKRDLPWRRRAEDEMDLDRRAYAVWVSEVMLQQTQVATVINYYTGWMQKWPTLQDLASASLEEVNQLWAGLGYYSRGRRLQEGARKVVEELGGHMPRTAETLQQLLPGVGRYTAGAIASIAFGQATGVVDGNVARVLCRVRAIGADPSSTLVSQQLWGLAQQLVDPARPGDFNQAAMELGATVCTPQRPLCSQCPVESLCRARQRVEQEQLLASGSLSGSPDVEECAPNTGQCHLCLPPSEPWDQTLGVVNFPRKAHRKPPREESSATCVLEQPGALGAQILLVQRPNSGLLAGLWEFPSVTWEPSEQLQRKALLQELQRWAGPLPATHLRHLGEVVHTFSHIKLTYQVYGLALEGQTPVTTVPPGARWLTQEEFHTAAVSTAMKKVFRVYQGQQPGTCMGSKRSQVSSPCSRKKPRMGQQVLDNFFRSHISTDAHSLNSAAQ [S335H]	0.0625
MRKPRAAVGSGHRKQAASQEGRQKHAKNNSQAKPSACDGLARQPEEVVLQASVSSYHLFRDVAEVTAFRGSLLSWYDQEKRDLPWRRRAEDEMDLDRRAYAVWVSEVMLQQTQVATVINYYTGWMQKWPTLQDLASASLEEVNQLWAGLGYYSRGRRLQEGARKVVEELGGHMPRTAETLQQLLPGVGRYTAGAIASIAFGQATGVVDGNVARVLCRVRAIGADPSSTLVSQQLWGLAQQLVDPARPGDFNQAAMELGATVCTPQRPLCSQCPVESLCRARQRVEQEQLLASGSLSGSPDVEECAPNTGQCHLCLPPSEPWDQTLGVVNFPRKAFRKPPREESSATCVLEQPGALGAQILLVQRPNSGLLAGLWEFPSVTWEPSEQLQRKALLQELQRWAGPLPATHLRHLGEVVHTFSHIKLTYQVYGLALEGQTPVTTVPPGARWLTQEEFHTAAVSTAMKKVFRVYQGQQPGTCMGSKRSQVSSPCSRKKPRMGQQVLDNFFRSHISTDAHSLNSAAQ [S335F]	-0.0626
MRKPRAAVGSGHRKQAASQEGRQKHAKNNSQAKPSACDGLARQPEEVVLQASVSSYHLFRDVAEVTAFRGSLLSWYDQEKRDLPWRRRAEDEMDLDRRAYAVWVSEVMLQQTQVATVINYYTGWMQKWPTLQDLASASLEEVNQLWAGLGYYSRGRRLQEGARKVVEELGGHMPRTAETLQQLLPGVGRYTAGAIASIAFGQATGVVDGNVARVLCRVRAIGADPSSTLVSQQLWGLAQQLVDPARPGDFNQAAMELGATVCTPQRPLCSQCPVESLCRARQRVEQEQLLASGSLSGSPDVEECAPNTGQCHLCLPPSEPWDQTLGVVNFPRKAARKPPREESSATCVLEQPGALGAQILLVQRPNSGLLAGLWEFPSVTWEPSEQLQRKALLQELQRWAGPLPATHLRHLGEVVHTFSHIKLTYQVYGLALEGQTPVTTVPPGARWLTQEEFHTAAVSTAMKKVFRVYQGQQPGTCMGSKRSQVSSPCSRKKPRMGQQVLDNFFRSHISTDAHSLNSAAQ [S335A]	0.0331
MRKPRAAVGSGHRKQAASQEGRQKHAKNNSQAKPSACDGLARQPEEVVLQASVSSYHLFRDVAEVTAFRGSLLSWYDQEKRDLPWRRRAEDEMDLDRRAYAVWVSEVMLQQTQVATVINYYTGWMQKWPTLQDLASASLEEVNQLWAGLGYYSRGRRLQEGARKVVEELGGHMPRTAETLQQLLPGVGRYTAGAIASIAFGQATGVVDGNVARVLCRVRAIGADPSSTLVSQQLWGLAQQLVDPARPGDFNQAAMELGATVCTPQRPLCSQCPVESLCRARQRVEQEQLLASGSLSGSPDVEECAPNTGQCHLCLPPSEPWDQTLGVVNFPRKAERKPPREESSATCVLEQPGALGAQILLVQRPNSGLLAGLWEFPSVTWEPSEQLQRKALLQELQRWAGPLPATHLRHLGEVVHTFSHIKLTYQVYGLALEGQTPVTTVPPGARWLTQEEFHTAAVSTAMKKVFRVYQGQQPGTCMGSKRSQVSSPCSRKKPRMGQQVLDNFFRSHISTDAHSLNSAAQ [S335E]	-0.0481
MRKPRAAVGSGHRKQAASQEGRQKHAKNNSQAKPSACDGLARQPEEVVLQASVSSYHLFRDVAEVTAFRGSLLSWYDQEKRDLPWRRRAEDEMDLDRRAYAVWVSEVMLQQTQVATVINYYTGWMQKWPTLQDLASASLEEVNQLWAGLGYYSRGRRLQEGARKVVEELGGHMPRTAETLQQLLPGVGRYTAGAIASIAFGQATGVVDGNVARVLCRVRAIGADPSSTLVSQQLWGLAQQLVDPARPGDFNQAAMELGATVCTPQRPLCSQCPVESLCRARQRVEQEQLLASGSLSGSPDVEECAPNTGQCHLCLPPSEPWDQTLGVVNFPRKAGRKPPREESSATCVLEQPGALGAQILLVQRPNSGLLAGLWEFPSVTWEPSEQLQRKALLQELQRWAGPLPATHLRHLGEVVHTFSHIKLTYQVYGLALEGQTPVTTVPPGARWLTQEEFHTAAVSTAMKKVFRVYQGQQPGTCMGSKRSQVSSPCSRKKPRMGQQVLDNFFRSHISTDAHSLNSAAQ [S335G]	-0.02
